Among the data in patent US20260306683 (published 2026) are EC50 values, retold here.

Like-named read-outs stand apart in the source and are kept apart here.

Common to all, as to assay: ELISA
(In general: An ELISA detects its analyte on a solid surface through an enzyme-linked reagent.)

Test [1] concerns the target T1, misfolded (denatured) human SOD1 (human, UniProt P00441).
Test [2] addresses T1, misfolded (denatured) human SOD1. This is another data set of the same source.
Test [3] has the same target. This is another data set of the same source.

T1 sequence (P00441 2-154): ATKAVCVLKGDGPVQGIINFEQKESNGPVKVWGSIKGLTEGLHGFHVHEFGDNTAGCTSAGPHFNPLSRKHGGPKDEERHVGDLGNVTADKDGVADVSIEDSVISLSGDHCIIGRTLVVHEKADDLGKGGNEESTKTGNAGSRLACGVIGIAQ

B1: Degly-natZr-DFO-AP-101 (antibody, V domains shown)
VH: QVQLVQSGAEVKKPGASVTLSCKASGYTFTAYYIHWVRQAREQGLEWMGVINPSTGTTFYAQNFPDRVSVTRDTSTSTVFMELHNLKSEDTAVYYCARAISEHGSGSYSPYYWGQGTLVTVSS
VL: SYELTQPPSVSVSLGQMAAITCSGEALPKKYGYWYQQKPGQVPVLLIYRDVERPSGVPDRFSGSSSGTMVTLTISGVQAEDEADYYCLSADSSGTWVFGGGTKLTVLG
modifications: EndoS2 deglycosylated, DFO conjugated on lysines (0.6:1.0), natZr labelled
On to B1, for which the EC50 – broadly, the concentration that produces a half-maximal response – in test [1] was 2.4 nM.

B2: AP-101 (non-modified alpha-miSOD1) (antibody, V domains shown)
VH: QVQLVQSGAEVKKPGASVTLSCKASGYTFTAYYIHWVRQAREQGLEWMGVINPSTGTTFYAQNFPDRVSVTRDTSTSTVFMELHNLKSEDTAVYYCARAISEHGSGSYSPYYWGQGTLVTVSS
VL: SYELTQPPSVSVSLGQMAAITCSGEALPKKYGYWYQQKPGQVPVLLIYRDVERPSGVPDRFSGSSSGTMVTLTISGVQAEDEADYYCLSADSSGTWVFGGGTKLTVLG
In test [2], B2 came in with an EC50 of 0.2 nM.

B3: natZr-DFO-AP-101 (antibody, V domains shown)
VH: QVQLVQSGAEVKKPGASVTLSCKASGYTFTAYYIHWVRQAREQGLEWMGVINPSTGTTFYAQNFPDRVSVTRDTSTSTVFMELHNLKSEDTAVYYCARAISEHGSGSYSPYYWGQGTLVTVSS
VL: SYELTQPPSVSVSLGQMAAITCSGEALPKKYGYWYQQKPGQVPVLLIYRDVERPSGVPDRFSGSSSGTMVTLTISGVQAEDEADYYCLSADSSGTWVFGGGTKLTVLG
modifications: DFO chelator conjugated on lysines (DFO:antibody 1.1:1.0), natZr labelled
For the molecule B3, the EC50 in test [3] turned out to be 0.5 nM; in test [1], 0.3 nM.
